Results reported in PMC3135652 (Journal of immunology (Baltimore, Md. : 1950), 2009).

Target: T1, Recombinant truncated p115 (p115 702-962), carboxy-terminal histidine tag (human, UniProt O60763 702-962)
T1 sequence (looked up): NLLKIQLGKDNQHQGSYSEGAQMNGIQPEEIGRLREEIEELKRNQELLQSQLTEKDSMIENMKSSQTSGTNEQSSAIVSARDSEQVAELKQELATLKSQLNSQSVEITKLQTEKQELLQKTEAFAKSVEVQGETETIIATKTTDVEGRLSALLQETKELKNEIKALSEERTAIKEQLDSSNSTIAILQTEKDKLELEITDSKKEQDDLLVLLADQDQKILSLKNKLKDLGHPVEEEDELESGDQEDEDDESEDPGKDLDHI
Assay: ELISA

B1: Biotinylated recombinant human MIF (natural protein, UniProt P14174 1-115, looked up)
chain: MPMFIVNTNVPRASVPDGFLSELTQQLAQATGKPPQYIAVHVVPDQLMAFGGSSEPCALCSLHSIGKIGGAQNRSYSKLLCGLLAERLRISPDRVYINYYDMNAANVGWNNSTFA
modifications: biotin (Biotin Protein Labeling Kit, Roche)
  binding result: binds
